Data published in publication PMC3605417, “An Archaeal Homolog of Proteasome Assembly Factor Functions as a Proteasome Activator” (PLoS ONE, 2013).
Numbering of substitutions follows the chain as printed.

B1: His6-PbaB, Pyrococcus furiosus (natural protein, UniProt Q8U1R3 1-280, looked up)
chain: MEEGGTRNREEGKMKETTIVVYERPDIYDPIFIEGLPGIGLVGKLAAEHLIQELKAKKFAELYSPHFMHQVLIRKNSVVELMKNEFYYWKSPDDEHRDLIIVTGDTQVPPTDSYGHFEVAGKMLDFVQEFGTREIITMGGYQVPEIQGEPRVLAAVTHEDLIEYYKSKLEGCSVEVIWREDEGGAIVGAAGLLLGIGKLRGMFGISLLGESLGYIVDAKAAKAVLSAVTKILGLEIDMTALDERAKETEEILRKVEEMQRAMMEQVTPKLPHEEEDRGYL
notes: PbaB, Pyrococcus furiosus, locus PF1142, residues 1-280; pET-28b (NdeI/XhoI); Used in SPR (immobilised), ultracentrifugation, electron tomography and the chaperone assay; also called His6-tagged PbaB; PF1142; source: E. coli BL21(DE3), purified (Ni2+-chelating Sepharose, HiTrap Q HP, Superdex 200); not shown: His6, N-terminal, kept
B2: non-tagged double homoheptameric ring of the proteasome α subunit, Pyrococcus furiosus (complex, UniProt Q8U0L6 1-260, looked up)
chain: MAFVPPQAGYDRAITVFSPDGRLFQVNYAREAVKRGATAVGVKCGEGVVLAVEKRITSRLIEPDSYEKIFQIDDHIAAASSGIIADARVLVNRARLEAQIYRLTYGEPAPVSVIVKKICDLKQMHTQYGGVRPFGAALLMAGINDRPELYETDPSGAYFAWKAVAIGSGRNTAMAIFEEKYRDDMNLEDAIKLALMALAKTMENPSADNIEVAVITVKDKKFRKLTRDEIEKYLSEVLKEVEEEEVKEKEEDYSELDSNY
notes: proteasome α subunit PsmA, Pyrococcus furiosus, locus PF1571, residues 1-260; also called α subunit ring; source: E. coli BL21(DE3), purified (same procedure as the non-tagged 20S proteasome mutants); copies: 14
B3: PbaB (non-tagged), Pyrococcus furiosus (natural protein, UniProt Q8U1R3 1-280, looked up)
chain: B1 chain
notes: PbaB, Pyrococcus furiosus, locus PF1142, residues 1-280; Homotetramer in the crystal and by ultracentrifugation; Cloned into NdeI/XhoI of pET-28b; also called non-tagged PbaB; PF1142; source: E. coli BL21(DE3), purified (Ni2+-chelating Sepharose, thrombin cleavage of the His6-tag, HiTrap Q HP, Superdex 200); not shown: His6, N-terminal, cleaved
B4: His6-PbaA, Pyrococcus furiosus (natural protein, UniProt Q8U4Q9 1-242, looked up)
chain: MEEKKPVNLVLPEVENAIFIEGYPGVGLVGHIAANFLAKELDMDLIGYVDSLFIPPMSLILEGRPTPPLRFYGKNNIIIAIADIFLPPTLVNEIAKEIVNYLKKVNAEKVISLAGMGIGFFKDTFEVWGIGGSEEENKELESLGVKILKYGSITGMSGKLLWEASRAGLKSYVLLGETFGDRPDPRAAANVVEVLNKMLGLNVSVEPLLKEAEMIEEQLRRMHEQMEEARRKMERQYETMYL
notes: PbaA, Pyrococcus furiosus, locus PF0015, residues 1-242; pET-28b (NdeI/XhoI); Pentamer in solution by sedimentation velocity; also called His6-tagged PbaA; PF0015; source: E. coli BL21(DE3), purified (Ni2+-chelating Sepharose, HiTrap Q HP, Superdex 200); not shown: His6, N-terminal, kept

Tests used:
[1] = target: T1, His6-tagged wild-type 20S proteasome (αβ1 form), Pyrococcus furiosus (Pyrococcus furiosus, UniProt Q8U0L6 1-260; Q8U4C9 1-196); assay: cell-based or functional assay
T1 sequence (looked up) 1: B2 chain
T1 sequence (looked up) 2: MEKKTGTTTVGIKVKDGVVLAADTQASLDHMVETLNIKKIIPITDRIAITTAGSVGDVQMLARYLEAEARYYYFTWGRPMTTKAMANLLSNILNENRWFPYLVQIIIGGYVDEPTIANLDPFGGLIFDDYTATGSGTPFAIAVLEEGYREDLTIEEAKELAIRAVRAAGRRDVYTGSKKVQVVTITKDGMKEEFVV

[2] = target: the molecule itself; assay: AUC; sedimentation velocity, 20 μM His6-tagged PbaA or PbaB, 150 mM sodium phosphate (pH 7.5), 100 mM NaCl, 38,000 rpm, 20°C; continuous c(s) distribution (SEDFIT)
[3] = target: T2, non-tagged mature 20S proteasome, inactive mutant (α + β1^NΔ6/T7A), Pyrococcus furiosus (Pyrococcus furiosus, UniProt Q8U0L6 1-260; Q8U4C9 7-196, T7A); assay: SPR; Biacore T100, Sensor Chip NTA, 25°C; His6-tagged PbaB (wild type or CΔ3) immobilised; non-tagged mature (18.8-300 nM) or immature (18.5-296 nM) 20S proteasome or α subunit ring (15.4-246 nM) injected; 10 mM HEPES (pH 7.5), 150 mM NaCl, 0.05% Tween20; 10 μl/min; settings: both partners purified
T2 construct: proteasome α subunit PsmA, Pyrococcus furiosus, locus PF1571, residues 1-260; proteasome β subunit 1 PsmB1, Pyrococcus furiosus, locus PF0159 (residues 1-196); NΔ6: the six N-terminal (propeptide) residues removed; non-tagged version; source: E. coli BL21(DE3), co-expressed, purified (heat precipitation at 85°C, HiTrap Q HP, Sephacryl S-400); copies: 14 + 14
T2 sequence (looked up) 1: B2 chain
T2 sequence (looked up) 2: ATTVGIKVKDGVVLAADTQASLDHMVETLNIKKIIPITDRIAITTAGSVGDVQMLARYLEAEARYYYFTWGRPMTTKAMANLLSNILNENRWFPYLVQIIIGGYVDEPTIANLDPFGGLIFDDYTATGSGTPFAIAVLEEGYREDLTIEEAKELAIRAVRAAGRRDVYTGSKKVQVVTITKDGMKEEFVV

[4] = target: T3, immature 20S proteasome retaining the β subunit propeptide, inactive mutant (α + β1^T7A), Pyrococcus furiosus (Pyrococcus furiosus, UniProt Q8U0L6 1-260; Q8U4C9 1-196, T7A); assay: as above; settings: both partners purified
T3 construct: proteasome α subunit PsmA, Pyrococcus furiosus, locus PF1571, residues 1-260; proteasome β subunit 1 PsmB1 with its propeptide, Pyrococcus furiosus, locus PF0159, residues 1-196; non-tagged version; source: E. coli BL21(DE3), co-expressed, purified (heat precipitation at 85°C, HiTrap Q HP, Sephacryl S-400); copies: 14 + 14
T3 sequence (looked up) 1: B2 chain
T3 sequence (looked up) 2: T1 sequence (looked up) 2 with T7A

[5] = target: B1; assay: as above; settings: both partners purified
[6] = target: the molecule itself; assay: crystal structure; non-tagged PbaB, 2.20 Å, space group C222(1), four molecules per asymmetric unit; 10% PEG10000, 100 mM Bis-Tris (pH 5.0), 50 mM sodium acetate, 5 mM NaAuCl4, 20°C

Question: For B1, which “proteasomal degradation of human α-synuclein (18 μM) by 35 nM wild-type 20S proteasome with 105 nM PbaB, 95°C; fold acceleration by PbaB” value [1] is on record?
Answer: Its value is ~2.5 fold.

Question: And the “proteasomal degradation of the fluorogenic nonapeptide LFP (10 μM) by 35 nM wild-type 20S proteasome with 175 nM PbaB, 45°C; fold acceleration by PbaB” value [1]?
Answer: The value was ~3 fold.

Question: And the “stoichiometry N” value [2]?
Answer: The value was 4.

Question: What about the Kd [3] of the same binder?
Answer: Its Kd is 7.8 nM.

Question: What about the Kd [4] of the same binder?
Answer: Its Kd is 21 nM.

Question: For B2, which Kd [5] is on record?
Answer: Its Kd is 330 nM.

Question: With B3 as the binder, how does the “stoichiometry N” value [6] read?
Answer: The value was 4.

Question: B4 was tested. Which “stoichiometry N” value [2] did it give?
Answer: The value was 5.
